We go through 1 substance from article PMC7353164.

The target of the experiment is Tim21HA (yeast) (UniProt P53220). Kind of experiment: co-IP.
UniProt P53220, sequence (P53220 71-239): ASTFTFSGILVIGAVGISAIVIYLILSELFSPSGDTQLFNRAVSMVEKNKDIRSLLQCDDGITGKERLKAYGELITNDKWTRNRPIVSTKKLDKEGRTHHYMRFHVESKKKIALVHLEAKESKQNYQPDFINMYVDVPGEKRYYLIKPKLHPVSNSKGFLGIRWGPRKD

Consider “Mgr2 G26L (from UniProt Q02889 1-113) (natural protein)”, for which the percent reduction of co-precipitation against wild type was 50%.
